Experimental data reported in JP2011160681A.

Legend:
[1] = biological target: InfA peptide (GMVDGWYG) (Influenza A virus); assay: ITC, 25 °C, peptide titrated into antibody
[2] = biological target: InfA peptide (GMVDGWYG) (Influenza A virus); assay: ITC (summary in the description)

B1: InfA-15 monoclonal antibody (antibody, V domains shown)
VH: QVQLKESGPGLVAPSQSLSITCTVSGFSLTKSGLHWVRQPPGKGLEWLGVIWAGGSTDYNSALTSRLTITKDNSKSQIFFRLNSLQTADTAMYYCVRSTFLYAMDFWGQGTSVTVS
VL: DAVMTQTPLSLPVSLGDQASISCRSSPSLEHSNGNTYLNWYLQKPGQSPQLLIYRVSNRFSGVPDRFSGSGSGTDFTLKISRVEAEDLGVYFCLQVTHVPPTFGGGTKLEIKRA
Ka [1]: 8.6e+06 M⁻¹ | 結合定数 (order of magnitude, unit M as printed) [2]: 1000 nM
